Reference: patent US20250073355A1, “CD44-BINDING PEPTIDE REAGENTS AND METHODS” (THE REGENTS OF THE UNIVERSITY OF MICHIGAN, priority 2021, published 2025)
No end group written: not given here. IRDye800 = fluorophore linked at C-terminus via GGGSC linker

How the values were obtained:
SK-Hep1 cells (CD44+) = assay: Confocal fluorescence microscopy of binding to SK-Hep1 cells; format: cell-based, human
Method: The cells were washed with PBS 1× and incubated with 4 μM of either target or control peptide for 3 min. The cells were then washed 3× in PBS, fixed with 4% paraformaldehyde (PFA) for 8 min, washed 3× with PBS then incubated with 2% BSA, 1% goat serum in PBS for 30 min. […] Confocal fluorescence images were collected on Leica SP8 confocal microscope using a 63× oil-immersion objective. Fluorescence intensities were quantified using custom MATLAB (Mathworks) software.

[1] = system: CD44 downstream signaling (pAKT, pErk1/2); assay: Western blot of CD44 downstream cell signaling; format: cell-based, human; conditions: 4 or 300 μM, 15 min, SK-Hep1 cells
Method: Western blots were performed to evaluate markers for activation of downstream cell signaling, FIG. 11. SK-Hep1 cells were incubated with either hyaluronan (HA) or peptide to evaluate activation of downstream signalling after binding to CD44. […] of low molecular weight HA (GLR001, R&D Systems) was added for 15 min. Peptides are added at concentrations of 4 and 300 μM for 15 min. Anti-CD44 antibody (#ab189524, Abcam), anti-AKT (#4691, Cell Signaling), anti-phospho-AKT (#9271, Cell Signaling), anti-ERK1/2 (#ab17942, Abcam,), anti-phospho-ERK1/2 (#ab50011, Abcam), and anti-β-Actin (#4967, Cell Signaling Technology) were used per manufacturer's instructions.

[2] = Animal necropsy (histology, hematology); format: in vivo, mice; conditions: 48 hours after systemic administration
Method: Whole blood was collected for evaluation of hematology and chemistry. Liver, kidney, heart, lung, spleen, stomach, intestine, and brain were harvested and submitted for routine histology (H&E). All slides were evaluated by a liver pathologist.

[3] = system: orthotopic human HCC xenograft tumors and major organs; assay: Peptide biodistribution in tumor-bearing mice; format: in vivo
Excerpt: The animals were euthanized at peak uptake after intravenous injection of the target and control peptides. Major organs, including heart, spleen, lung, liver, brain, stomach, kidney, intestine, were resected and exposed for white light and fluorescence imaging to measure peptide biodistribution. White light and NIR fluorescence images were collected from the major organs, FIG. 17.

[4] = system: orthotopic human HCC xenograft tumors (SK-Hep1); assay: Photoacoustic imaging of orthotopic human HCC xenograft tumors; conditions: post intravenous injection
Method: (§1) Human HCC xenograft tumors were implanted orthotopically in female nude athymic mice. First, ˜5×10^6 SK-Hep1 tumor cells were injected subcutaneously into the hind limb flank. Tumors were then monitored twice a week and allowed to grow to 1-2 cm in diameter for 10-30 days. A small horizontal incision was made below the sternum to expose the liver. The liver was incised with a sharp scalpel horizontally in parallel with the surface of the exposed liver. A piece of the subcutaneous tumor with dimensions of ˜1×1×1 mm^3 was implanted into the incision, and then the site was sealed with absorbable hemostatic material (surgical, Johnson & Johnson). The liver was returned to its original position after confirming hemostasis.
IRDye800-labeled target and control peptides (300 μM in 200 μL PBS) were intravenously injected in mice bearing orthotopical SK-Hep1 tumors. An unlabeled peptide (1.5 mM, 100 μL) was injected 30 min prior to the labeled peptide to compete for binding. ICG (2.46 mg/kg) was injected intravenously as a control. Three-dimensional (3D) images were acquired from 0 to 48 h post injection and reconstructed using PAI tomography system (Nexus 128, Endra) using Iex=774 nm excitation. The photoacoustic signal intensity was measured from the two-dimensional (2D) maximum intensity projection (MIP) images, and the pre-injection images were used for background.
The photoacoustic images were collected to evaluate the time course for peptide uptake, FIG. 14A. […] Indocyanine green (ICG) was also administered (2.46 mg/kg) for comparison.

SK-Hep1 cells [5] = assay: Apparent association time constant; parameters: species or system human; conditions: binding to SK-Hep1 cells
[6] = Serum stability by analytical RP-HPLC; format: in vitro ADME; conditions: mouse serum, up to 24 hours, read-out: half-life T1/2 in serum (converted)
[7] = system: orthotopic SK-Hep1 xenograft tumors; assay: Whole body fluorescence imaging of orthotopic human HCC xenograft tumors; conditions: post intravenous injection
Method: as §1

SK-Hep1 cells [8] = system: SK-Hep1 cells
Method: The apparent dissociation constant kd for peptide binding to cells was measured to assess the binding affinity. IRDye800-labeled target peptides were serially diluted in PBS at concentrations of 0, 10, 20, 40, 80, 100, and 200 nM. ˜10^5 SK-Hep1 cells were incubated with the peptides at 4° C. for 1 hour, washed with cold PBS, and the mean fluorescence intensities were measured using flow cytometry. The equilibrium dissociation constant kd=1/ka was calculated by performing a least squares fit of the data to the non-linear equation l=(l0+lmaxka [X])/([…]). l0 and lmax are the initial and maximum fluorescence intensities, corresponding to no peptide and at saturation, respectively, and [X] represents the concentration of the bound peptide. Prism 5.0 software (GraphPad Inc) was used to calculate kd.

human HCC specimens = assay: Peptide validation in human HCC specimens ex vivo (immunofluorescence)
Method: A tissue microarray (TMA) of human HCC was generated to investigate specific binding by the CD44 peptide to human HCC. Formalin-fixed, paraffin-embedded (FFPE) sections of human liver were obtained from the archived tissue bank in the Department of Pathology. The specimens were washed 3× in xylene for 3 min, 100% ethanol for 3 min, 95% ethanol for 3 min, 70% ethanol for 3 min, rinsed in H2O for 2 min. Antigen unmasking was performed by boiling the slides in 10 mM sodium citrate buffer with 0.05% Tween at pH 6.0 for 15 min. The slides were cooled to RT, and were washed in H2O 3× for 5 min. Blocking was performed with DAKO protein blocking agent (X0909, DAKO) for 1 hour at RT. The peptides at 1 μM concentration were incubated for 10 min at RT. The sections were washed 3× in PBST for 3 min, and incubated with 400 μL at 1:500 dilution of recombinant anti-CD44 (#ab189524, Abcam) overnight at 4° C. The sections were then washed 3× in PBST for 5 min. A 1:500 dilution of AF488-labeled secondary antibody (goat anti rabbit Alexa Fluor®488) was added to each section and incubated for 1 hour at RT. The secondary antibody solution was removed and washed 3× with PBST for 5 min. The sections were then mounted with ProLong Gold reagent containing DAPI (Invitrogen). The fluorescence images of each specimen were collected using confocal microscopy (SP8, Leica), and the mean fluorescence intensity from each image was measured from 3 boxes with dimensions of 20×20 μm^2 using custom MATLAB software. Regions of saturated image intensities were avoided.

SK-Hep1 cells [9] = assay: MTT cytotoxicity assay; format: cell-based, human; conditions: up to 200 μg/mL, 24 hours
Method: The CD44-binding and control peptides were serially diluted over a range of concentrations and incubated with SK-Hep1 cells seeded in 96-well plates for 24 hours. The media was then removed, and MTT solution (100 μL, 0.5 mg/mL) was added. After 4 hours for incubation, the MTT solution was removed, and 150 μL of DMSO was added to each well to solubilize formazan crystals produced by living cells. Absorbance at Aabs=570 (test) and 630 nm (reference) was measured using a plate reader (VersaMax™ Tunable Microplate Reader). The half-maximum inhibitory concentration (IC50) was measured.
An MTT assay was performed to evaluate the cytotoxicity of CD44 peptides. Peptides were incubated with SK-Hep1 cells in increasing concentrations up to 200 μg/mL for 24 hours.

CD44 = target: T1, CD44 (Homo sapiens, UniProt P16070); assay: Competitive inhibition with unlabeled peptide on SK-Hep1 cells; format: cell-based; conditions: competition
T1 construct: endogenous in cells; host or cells: SK-Hep1 (human HCC cells)
T1 sequence (P16070 21-742): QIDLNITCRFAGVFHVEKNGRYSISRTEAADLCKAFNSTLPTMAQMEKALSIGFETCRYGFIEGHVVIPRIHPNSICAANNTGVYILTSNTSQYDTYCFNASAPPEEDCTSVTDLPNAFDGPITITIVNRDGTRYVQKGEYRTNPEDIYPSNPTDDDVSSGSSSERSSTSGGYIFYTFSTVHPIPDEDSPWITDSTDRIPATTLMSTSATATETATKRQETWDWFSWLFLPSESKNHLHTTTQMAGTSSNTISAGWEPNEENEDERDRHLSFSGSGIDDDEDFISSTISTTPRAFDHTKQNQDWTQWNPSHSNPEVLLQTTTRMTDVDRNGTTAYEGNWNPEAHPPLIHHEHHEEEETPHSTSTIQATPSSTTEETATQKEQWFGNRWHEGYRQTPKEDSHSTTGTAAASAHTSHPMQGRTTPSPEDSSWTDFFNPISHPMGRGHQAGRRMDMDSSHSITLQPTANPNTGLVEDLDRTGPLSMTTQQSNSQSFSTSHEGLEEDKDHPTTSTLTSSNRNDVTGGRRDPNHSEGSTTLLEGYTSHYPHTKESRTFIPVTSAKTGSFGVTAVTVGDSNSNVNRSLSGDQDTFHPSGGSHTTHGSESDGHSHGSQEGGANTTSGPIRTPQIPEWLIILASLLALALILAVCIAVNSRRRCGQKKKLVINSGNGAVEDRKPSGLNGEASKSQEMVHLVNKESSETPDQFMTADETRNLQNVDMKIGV
Method: (§2) Specific peptide binding to CD44 was further validated using competitive inhibition by adding unlabeled peptide. Approximately […] SK-Hep1 cells were grown to ˜70% confluence on cover glass in triplicate. Unlabeled peptides at concentrations of 0, 10, 20, 40, 80, and 100 μM were incubated with the cells for 30 min at 4° C. The cells were washed with PBS and incubated with 5 μM of the target peptides for another 30 min at 4° C. The cells were washed and fixed with 4% PFA for 8 min. The cells were washed with PBS and mounted with ProLong Gold reagent containing DAPI (Invitrogen).

[10] = target: T2, CD44 (Cluster of differentiation 44) (human, UniProt P16070 21-742); assay: confocal microscopy on SK-Hep1 cells
T2 construct: whole, on cells; The target is tied to CD44 by siRNA knockdown in SK-Hep1 cells; also called CD44 on human SK-Hep1 HCC cells
T2 sequence (P16070 21-742): as above

[11] = target: T2, CD44 (Cluster of differentiation 44); assay: confocal microscopy, SK-Hep1 control siRNA against CD44 knockdown cells
[12] = target: T2, CD44 (Cluster of differentiation 44); assay: flow cytometry on SK-Hep1 cells, labeled peptide 0-200 nM, 4 °C, 1 hour
Method: The apparent dissociation constant kd for peptide binding to cells was measured to assess the binding affinity [31]. IRDye800-labeled target peptides were serially diluted in PBS at concentrations of 0, 10, 20, 40, 80, 100, and 200 nM. ˜10⁵ SK-Hep1 cells were incubated with the peptides at 4° C. for 1 hour, washed with cold PBS, and the mean fluorescence intensities were measured using flow cytometry. The equilibrium dissociation constant kd=1/kₐ was calculated by performing a least squares fit of the data to the non-linear equation l=(l₀+lₘₐₓkₐ [X])/(l₀+kₐ[X]). l₀ and lₘₐₓ are the initial and maximum fluorescence intensities, corresponding to no peptide and at saturation, respectively, and [X] represents the concentration of the bound peptide. Prism 5.0 software (GraphPad Inc) was used to calculate kd.

[13] = target: T2, CD44 (Cluster of differentiation 44); assay: competition against 5 µM WKG*-IRDye800 on SK-Hep1 cells; second of five concentrations of unlabeled peptide
Method: as §2

[14] = target: T2, CD44 (Cluster of differentiation 44); assay: competition against 5 µM WKG*-IRDye800 on SK-Hep1 cells; fourth of five concentrations of unlabeled peptide
Method: as §2

[15] = target: T2, CD44 (Cluster of differentiation 44); assay: competition against 5 µM WKG*-IRDye800 on SK-Hep1 cells; first of five concentrations of unlabeled peptide (series 0, 10, 20, 40, 80, 100 µM; which five not stated)
Method: as §2

[16] = target: T2, CD44 (Cluster of differentiation 44); assay: competition against 5 µM WKG*-IRDye800 on SK-Hep1 cells; fifth of five concentrations of unlabeled peptide
Method: as §2

[17] = target: T2, CD44 (Cluster of differentiation 44); assay: competition against 5 µM WKG*-IRDye800 on SK-Hep1 cells; third of five concentrations of unlabeled peptide
Method: as §2

[18] = 1 μM peptide, 10 min, FFPE human sections

CC(C)C[C@H](NC(=O)[C@H](Cc1ccc(O)cc1)NC(=O)[C@H](CO)NC(=O)[C@H](Cc1c[nH]c2ccccc12)NC(=O)CNC(=O)[C@H](CCCCN)NC(=O)[C@@H](N)Cc1c[nH]c2ccccc12)C(=O)N[C@@H](Cc1c[nH]c2ccccc12)C(=O)N[C@H](C(=O)N[C@@H](CCC(N)=O)C(=O)N[C@@H](CCC(N)=O)C(=O)N[C@@H](C)C(=O)NCC(=O)NCC(=O)NCC(=O)N[C@@H](CO)C(=O)N[C@@H](CSC1CC(=O)N(CCNC(=O)CCCCCN2C(=CC=C3CCCC(C=CC4=[N+](CCCCS(=O)(=O)[O-])c5ccc(S(=O)(=O)O)cc5C4(C)C)=C3Oc3ccc(S(=O)(=O)O)cc3)C(C)(C)c3cc(S(=O)(=O)O)ccc32)C1=O)C(N)=O)[C@@H](C)O (stereo partly shown) [WKG*-IRDye800]
fluorescence intensity for binding to SK-Hep1 cells compared with Hep 3B cells (SK-Hep1 cells (CD44+); SK-Hep1 (CD44+) vs Hep 3B (CD44−)): Significantly greater | Pearson correlation coefficient ρ of binding co-localization with anti-CD44-AF488 (SK-Hep1 cells (CD44+); merged image, SK-Hep1 cell surface): 0.81 | effect on CD44 downstream signaling (phosphorylation of AKT and Erk1/2) [1]: no effect | acute toxicity, hematology and chemistry ([2]; n=3 mice): No acute peptide toxicity was observed | toxicity on histology (H&E) of vital organs ([2]; normal healthy mice): No signs of toxicity | intensity in adjacent normal liver region (mean±SD) ([3]; […] after intravenous injection): 0.92±0.45 | route of clearance ([3]; mouse, in vivo): primarily renal clearance | time of return to baseline, photoacoustic [4]: ~24 h | apparent association time constant (time) (SK-Hep1 cells [5]): 6.8 min | apparent association time constant k (SK-Hep1 cells [5]): 0.26 min⁻¹ | half-life [6]: 5.1 h | time of return to baseline, whole body fluorescence [7]: ~24 h | improved binding affinity by comparison with previously reported CD44 peptides (SK-Hep1 cells [8]): 3 fold | Kd (SK-Hep1 cells [8]; read-out: apparent dissociation constant kd, SK-Hep1 cells, 4° C., 1 hour, flow cytometry): 43 nM | fluorescence intensity, HCC (mean±SD) (human HCC specimens; [18]): 1.47±0.50 | fluorescence intensity, adenoma (mean±SD) (human HCC specimens; [18]): 0.93±0.35 | fluorescence intensity, cirrhosis (mean±SD) (human HCC specimens; [18]): 0.67±0.34 | fluorescence intensity, normal human liver (mean±SD) (human HCC specimens; [18]): 0.56±0.21 | binding to the cell surface of HCC, immunofluorescence (human HCC specimens; human HCC sections): strong binding | effect on cell viability (MTT) (SK-Hep1 cells [9]): no effect on cell viability until the highest concentrations were reached

WKGWSYLWTQQA [WKG*]
change of WKG*-IRDye800 fluorescence intensities with increasing concentrations of unlabeled peptide (CD44): decreased significantly

rabbit anti-CD44 antibody (EPR18668, Abcam)
fold change in fluorescence intensity relative to WYK*-IRDye800 (control) [10]: 5.61 fold | fold change in fluorescence intensity, siCL relative to siCD441 [11]: 4.1 fold | fold change in fluorescence intensity, siCL relative to siCD442 [11]: 3.3 fold | fold change in fluorescence intensity, siCL relative to siCD443 [11]: 3.1 fold

B1: WKG*-IRDye800 (peptide)
peptide: WKGWSYLWTQQAGGGSC-IRDye800
notes: Synthetic L-amino acid peptide made by Fmoc solid-phase synthesis on rink amide MBHA resin; also called CD44-directed peptide
Kd [12]: 43 nM

B2: unlabeled WKG* (peptide)
peptide: WKGWSYLWTQQA
modifications: also: may carry GGGSC linker and C-terminal amide
notes: The m/z of 1913.87 printed for WKG* fits the 12-mer plus GGGSC with a C-terminal amide; also called unlabeled peptide
fold change of fluorescence intensity relative to an equal concentration of WYK* [13]: 0.61 fold | fold change of fluorescence intensity relative to an equal concentration of WYK* [14]: 0.12 fold | fold change of fluorescence intensity relative to an equal concentration of WYK* [15]: 1.02 fold | fold change of fluorescence intensity relative to an equal concentration of WYK* [16]: 0.1 fold | fold change of fluorescence intensity relative to an equal concentration of WYK* [17]: 0.36 fold
